The values below are quoted from earlier work in publication PMC12748512.

pKd: −log10 of the molar value. Read-outs that look alike come from different tables or passages of the source.

In data set [1] the target is IL-2Rβ-γc complex (Homo sapiens) (UniProt P14784).
The target is the same in data set [2]. The source holds these as a separate data set.

Sequence of UniProt P14784 (P14784 27-240, chain 1 of 2): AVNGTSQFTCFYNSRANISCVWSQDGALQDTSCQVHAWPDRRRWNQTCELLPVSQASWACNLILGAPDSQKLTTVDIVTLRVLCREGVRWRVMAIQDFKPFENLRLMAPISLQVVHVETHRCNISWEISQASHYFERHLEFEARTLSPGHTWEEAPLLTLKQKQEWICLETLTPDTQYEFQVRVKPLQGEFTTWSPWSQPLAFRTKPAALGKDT
Sequence of UniProt P14784 (P31785 23-262, chain 2 of 2, further chain): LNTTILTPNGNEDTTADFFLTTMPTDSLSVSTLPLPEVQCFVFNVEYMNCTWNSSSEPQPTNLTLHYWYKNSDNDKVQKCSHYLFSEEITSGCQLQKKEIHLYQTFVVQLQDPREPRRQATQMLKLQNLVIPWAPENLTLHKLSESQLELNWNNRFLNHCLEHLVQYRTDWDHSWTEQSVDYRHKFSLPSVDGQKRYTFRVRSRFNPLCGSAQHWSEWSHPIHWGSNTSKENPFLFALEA

IL-2 (from UniProt P60568): the pKd in data set [1] is 9.00.
With IL-15 (from UniProt P40933), in data set [2], the pKd is 9.00.

By pKd is commonly meant the Kd on a negative log10 scale, so that one unit is a factor of ten.
